Biological target: Cdh23 with entire EC domains (Cdh23 EC 1-27) (UniProt Q99PF4)
Assay: cross-linking

Substance: Cdh23 with entire EC domains (Cdh23 EC 1-27) (from UniProt Q99PF4 24-3354) (domain or fragment)
- stoichiometry N: 2

From doi:10.1101/2022.08.19.504503
